Test results: US20120276193A1 (CYTOGUIDE A S, published 2012)

Legend:
[1] = biological target: human CD163 on cells (human) (UniProt Q86VB7); assay: flow cytometry, fresh whole blood, citrate as anticoagulant
[2] = biological target: human CD163 on cells (human) (UniProt Q86VB7); assay: flow cytometry, PBMC isolated by density gradient centrifugation
[3] = biological target: human CD163 on cells (human) (UniProt Q86VB7); assay: quantitative flow cytometry, PBMC isolated by density gradient centrifugation
[4] = biological target: human CD163 on cells (human) (UniProt Q86VB7); assay: quantitative flow cytometry, fresh whole blood, citrate as anticoagulant
[5] = biological target: human CD163 on cells (human) (UniProt Q86VB7); assay: quantitative flow cytometry, fresh whole blood, heparin as anticoagulant
[6] = biological target: human CD163 on cells (human) (UniProt Q86VB7); assay: 125I-labelled mAb on stable CD163 transfected Flp-In CHO cells (non-transfected cells: 1.47%)
[7] = biological target: human CD163 on cells (human) (UniProt Q86VB7); assay: flow cytometry, R-PE mAb, fresh EDTA whole blood
[8] = biological target: purified recombinant CD163 immobilized on a Biacore chip (human) (UniProt Q86VB7); assay: SPR, immobilized recombinant CD163, 2 mM free Ca2+
Sequence of purified recombinant CD163 immobilized on a Biacore chip (human) (Q86VB7 42-1050 limits assumed): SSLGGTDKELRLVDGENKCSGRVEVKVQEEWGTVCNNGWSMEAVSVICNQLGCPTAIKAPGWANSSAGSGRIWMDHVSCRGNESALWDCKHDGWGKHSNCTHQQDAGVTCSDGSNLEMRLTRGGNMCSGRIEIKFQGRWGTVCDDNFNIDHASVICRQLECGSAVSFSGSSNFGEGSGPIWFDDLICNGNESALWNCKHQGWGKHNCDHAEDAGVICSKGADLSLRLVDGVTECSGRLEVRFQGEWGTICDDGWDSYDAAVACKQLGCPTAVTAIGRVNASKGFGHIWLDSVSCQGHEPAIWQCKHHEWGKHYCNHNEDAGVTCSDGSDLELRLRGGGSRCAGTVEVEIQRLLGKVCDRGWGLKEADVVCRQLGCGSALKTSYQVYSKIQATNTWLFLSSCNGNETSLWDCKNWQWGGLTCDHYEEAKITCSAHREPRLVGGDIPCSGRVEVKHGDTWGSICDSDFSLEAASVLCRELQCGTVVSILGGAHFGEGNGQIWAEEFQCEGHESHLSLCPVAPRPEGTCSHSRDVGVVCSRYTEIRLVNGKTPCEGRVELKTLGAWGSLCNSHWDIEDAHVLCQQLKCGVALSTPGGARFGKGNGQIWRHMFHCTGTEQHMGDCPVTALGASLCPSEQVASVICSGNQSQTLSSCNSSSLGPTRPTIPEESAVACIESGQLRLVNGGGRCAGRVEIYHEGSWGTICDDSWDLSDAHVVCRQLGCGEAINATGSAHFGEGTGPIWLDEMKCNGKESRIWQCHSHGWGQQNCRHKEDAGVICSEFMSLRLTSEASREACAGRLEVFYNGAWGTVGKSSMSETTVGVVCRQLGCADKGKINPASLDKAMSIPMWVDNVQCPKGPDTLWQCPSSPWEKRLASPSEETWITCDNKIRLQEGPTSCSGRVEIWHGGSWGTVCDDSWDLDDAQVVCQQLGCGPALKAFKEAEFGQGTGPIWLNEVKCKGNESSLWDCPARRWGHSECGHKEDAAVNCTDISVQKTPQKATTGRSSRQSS

[9] = biological target: human CD163 on cells (human) (UniProt Q86VB7); assay: quantitative flow cytometry, fresh whole blood, EDTA as anticoagulant
[10] = biological target: human CD163 on cells (human) (UniProt Q86VB7); assay: quantitative flow cytometry (Quantibrite PE beads), fresh EDTA whole blood
[11] = biological target: human CD163 on cells (human) (UniProt Q86VB7); assay: flow cytometry, fresh whole blood, heparin as anticoagulant
[12] = biological target: rat CD163 on cells (rat) (UniProt D3Z9U2); assay: flow cytometry, rat peritoneal macrophages, negative control staining with IgG-FITC
[13] = biological target: rat CD163 on cells (rat) (UniProt D3Z9U2); assay: flow cytometry, rat peritoneal macrophages stained with anti-rat CD172a-PE (ED9) and anti-rat CD163-FITC (ED2)
[14] = biological target: rat CD163 on cells (rat) (UniProt D3Z9U2); assay: flow cytometry, rat peritoneal macrophages, ED2-FITC
[15] = biological target: human CD163 on cells (human) (UniProt Q86VB7); assay: flow cytometry, peripheral blood dendritic cells, negative staining control
[16] = biological target: human CD163 on cells (human) (UniProt Q86VB7); assay: quantitative flow cytometry (Quantibrite PE beads), fresh EDTA whole blood, isotype control
[17] = biological target: human CD163 on cells (human) (UniProt Q86VB7); assay: flow cytometry, CD163low subset of peripheral blood dendritic cells; clone GHI/61 by paragraph 356
[18] = biological target: human CD163 on cells (human) (UniProt Q86VB7); assay: 125I-labelled mAb on stable CD163 transfected Flp-In CHO cells (non-transfected cells: 1.23%)
[19] = biological target: human CD163 on cells (human) (UniProt Q86VB7); assay: flow cytometry, PE mAb, CD14-ILT3+ dendritic cells in whole blood
[20] = biological target: human CD163 on cells (human) (UniProt Q86VB7); assay: flow cytometry, CD163high subset of peripheral blood dendritic cells; clone GHI/61 by paragraph 356
[21] = biological target: purified recombinant CD163 immobilized on a Biacore chip (human) (UniProt Q86VB7); assay: SPR, immobilized recombinant CD163, 10 mM EDTA buffer
[22] = biological target: human CD163 on cells (human) (UniProt Q86VB7); assay: flow cytometry, PE mAb, CD163+ peripheral blood dendritic cells
[23] = biological target: human CD163 on cells (human) (UniProt Q86VB7); assay: flow cytometry, CD14+ILT3+HLA-DR+ monocytes; clone GHI/61 by paragraph 356
[24] = biological target: human CD163 on cells (human) (UniProt Q86VB7); assay: flow cytometry, fresh whole blood, EDTA as anticoagulant
[25] = biological target: human CD163 on cells (human) (UniProt Q86VB7); assay: flow cytometry, mononuclear cells from buffy coat, Mac2-158-FITC with KN2/NRY-Alexa Fluor647
[26] = biological target: human CD163 on cells (human) (UniProt Q86VB7); assay: 125I-labelled mAb on stable CD163 transfected Flp-In CHO cells (non-transfected cells: 1.37%)
[27] = biological target: human CD163 on cells (human) (UniProt Q86VB7); assay: flow cytometry, human mononuclear cells from buffy coats stained with Mac2-158-FITC, anti-CD14-PE and KN2/NRY-Alexa Fluor647
[28] = biological target: T1, murine CD163 in solubilized murine spleen (mouse, UniProt Q2VLH6 39-1121, limits assumed); assay: western blot of solubilized murine spleen with hybridoma supernatants
T1 construct: also called non-reduced CD163
T1 sequence (Q2VLH6 39-1121 limits assumed): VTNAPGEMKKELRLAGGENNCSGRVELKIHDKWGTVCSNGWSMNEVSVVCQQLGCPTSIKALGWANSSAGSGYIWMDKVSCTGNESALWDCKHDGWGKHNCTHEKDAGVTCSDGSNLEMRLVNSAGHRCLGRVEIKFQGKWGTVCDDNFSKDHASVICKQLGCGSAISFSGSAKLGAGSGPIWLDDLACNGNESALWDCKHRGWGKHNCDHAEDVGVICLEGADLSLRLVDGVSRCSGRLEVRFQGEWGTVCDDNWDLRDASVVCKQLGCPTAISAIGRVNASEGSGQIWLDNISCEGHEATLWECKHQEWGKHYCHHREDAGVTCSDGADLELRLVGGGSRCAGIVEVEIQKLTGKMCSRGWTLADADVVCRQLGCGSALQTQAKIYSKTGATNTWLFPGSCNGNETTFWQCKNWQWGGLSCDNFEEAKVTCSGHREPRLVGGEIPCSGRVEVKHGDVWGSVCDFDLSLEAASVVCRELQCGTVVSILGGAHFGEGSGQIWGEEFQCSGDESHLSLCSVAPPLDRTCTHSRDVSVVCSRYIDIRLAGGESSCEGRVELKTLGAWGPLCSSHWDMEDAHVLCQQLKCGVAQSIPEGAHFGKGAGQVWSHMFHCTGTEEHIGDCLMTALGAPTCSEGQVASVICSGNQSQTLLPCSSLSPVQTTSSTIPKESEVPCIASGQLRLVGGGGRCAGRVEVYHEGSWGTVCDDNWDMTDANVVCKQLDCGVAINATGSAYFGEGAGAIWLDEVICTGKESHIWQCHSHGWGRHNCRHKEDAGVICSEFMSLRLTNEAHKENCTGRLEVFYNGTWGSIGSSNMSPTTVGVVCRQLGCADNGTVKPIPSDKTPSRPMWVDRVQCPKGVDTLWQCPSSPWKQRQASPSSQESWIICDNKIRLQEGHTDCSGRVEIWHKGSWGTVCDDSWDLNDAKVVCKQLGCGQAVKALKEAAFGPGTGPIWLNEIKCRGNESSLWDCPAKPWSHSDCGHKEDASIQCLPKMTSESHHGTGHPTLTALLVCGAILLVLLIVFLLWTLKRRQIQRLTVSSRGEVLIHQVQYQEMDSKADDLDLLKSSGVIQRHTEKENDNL
Description: The clones were screened by testing binding of supernatants to murine CD163 in solubilized murine spleen loaded on a SDS-PAGE and western blotted, using standard techniques.

## RM3/1 (antibody)
[1]
  fraction of CD14+ monocytes stained positive for CD163: 12.5%
[2]
  fraction of CD14+ monocytes stained positive for CD163: 2.5%
[3]
  density of CD163 receptors per monocyte (PE antibodies bound per cell): 132 per monocyte
[4]
  density of CD163 receptors per monocyte (PE antibodies bound per cell): 207 per monocyte
[5]
  density of CD163 receptors per monocyte (PE antibodies bound per cell): 210 per monocyte
[6]
  percentage of cell-associated radioactivity: 7.77%
[7]
  fraction of CD14+ monocytes stained positive for CD163: 0.33%
[8]
  Kd: 0.6 nM
[9]
  density of CD163 receptors per monocyte (PE antibodies bound per cell): 86 per monocyte
[10]
  density of CD163 receptors per monocyte (PE antibodies bound per cell): 101 per monocyte
[11]
  fraction of CD14+ monocytes stained positive for CD163: 3.33%

## IgG-FITC (antibody)
[12]
  share of cells in the lower right quadrant (IgG FITC positive): 0.41%
  share of cells in the upper right quadrant: 0.06%

## ED2 (antibody)
[13]
  share of cells in the lower right quadrant (CD163 FITC positive, CD172a PE negative): 0.01%
  share of cells in the upper right quadrant (CD163 FITC positive, CD172a PE positive): 42.9%
[14]
  percent of peritoneal macrophages CD163 positive: 42%

## Mouse IgG, PE, k isotype control, MOPC-21 (antibody)
[15]
  MFI: 1.23 MFI

## R-PE-conjugated Mouse IgG1, k isotype control (MCG1) (antibody)
[16]
  background staining (PE antibodies bound per cell): 94 per monocyte

## GHI/61 (antibody)
[17]
  MFI: 4.2 MFI
[18]
  percentage of cell-associated radioactivity: 1.23%
[19]
  fraction of peripheral blood dendritic cells recognized: 10.5%
[1]
  fraction of CD14+ monocytes stained positive for CD163: 64.4%
[2]
  fraction of CD14+ monocytes stained positive for CD163: 1.26%
[20]
  MFI: 34.6 MFI
[21]
  Kd: 29 nM
[22]
  MFI: 22.3 MFI
[3]
  density of CD163 receptors per monocyte (PE antibodies bound per cell): 108 per monocyte
[23]
  percent of cells stained positive: 88%
[4]
  density of CD163 receptors per monocyte (PE antibodies bound per cell): 1150 per monocyte
[5]
  density of CD163 receptors per monocyte (PE antibodies bound per cell): 58.3 per monocyte
[7]
  fraction of CD14+ monocytes stained positive for CD163: 63%
[10]
  density of CD163 receptors per monocyte (PE antibodies bound per cell): 1030 per monocyte
[11]
  fraction of CD14+ monocytes stained positive for CD163: 0.82%

## Mac2-158 (antibody)
[19]
  fraction of peripheral blood dendritic cells recognized: 32.3%
[1]
  fraction of CD14+ monocytes stained positive for CD163: 84%
[2]
  fraction of CD14+ monocytes stained positive for CD163: 81.1%
[24]
  fraction of CD14+ monocytes stained positive for CD163: 87.2%
[22]
  MFI: 108 MFI
[3]
  density of CD163 receptors per monocyte (PE antibodies bound per cell): 11400 per monocyte
[25]
  percent of peripheral monocytes showing co-binding of KN2/NRY and Mac2-158: 70%
[4]
  density of CD163 receptors per monocyte (PE antibodies bound per cell): 17700 per monocyte
[5]
  density of CD163 receptors per monocyte (PE antibodies bound per cell): 18900 per monocyte
[7]
  fraction of CD14+ monocytes stained positive for CD163: 84.1%
[26]
  percentage of cell-associated radioactivity: 61.3%
[10]
  density of CD163 receptors per monocyte (PE antibodies bound per cell): 17700 per monocyte
[27]
  share of cells in the lower right quadrant (Mac2-158-FITC positive, CD14-PE negative): 1.22%
  share of cells in the lower right quadrant (Mac2-158-FITC positive, KN2/NRY-Alexa Fluor 647 negative): 4.45%
  share of cells in the upper right quadrant (Mac2-158-FITC positive, CD14-PE positive): 73.9%
  share of cells in the upper right quadrant (positive for both Mac2-158-FITC and KN2/NRY-Alexa Fluor 647): 70.7%
[11]
  fraction of CD14+ monocytes stained positive for CD163: 84.4%

B1: 3E10B10 (antibody, V domains shown)
VH: QVKLQESGGGLVQPKESLKISCAASGFTFSTAAMYWVRQAPGKGLDWVARIRTKPDNYATYYPASVKGRFTISRDDSKGMVYLQMDNLKTEDTAIYYCTAAYYYDGRFDYWGQGVMVTVAS
VL: DIVMTQTPSSQAVSAGERVTMRCKSSQSLLYSENKKNYLAWYQQKPGQSPKLLISWASTRESGVPDRFIGSGSGTDFTLTISSVQAEDLAVYYCDQYYDPPFTFGSGTKLEIK
notes: Rat IgG2a hybridoma antibody raised against mouse CD163 domain 1-3; also called rat anti-mouse E10B10 (IgG2a)
[28]
  binding result: binds
